Source: US20110104157A1, “LIVER CANCER DRUG” (Chugai Seiyaku Kabushiki Kaisha, priority 2008, published 2011)

What was measured:
liver cancer = liver cancer patients, phase II; cited from earlier work
HuH-7 xenograft = test: Example 2 antitumor effect, HuH-7 xenograft mouse model (hGC33 and Sorafenib); assay type: in vivo; conditions: hGC33 5 mg/kg i.v. weekly x3 alone or Sorafenib 80 mg/kg oral 5 times per week x3 alone
Protocol: (§1) HepG2 cells or HuH-7 cells (5×10^5 cells) dispersed in 50% Matrigel (Becton Dickinson) were subcutaneously implanted. When the tumor volume reached 250 mm^3, the mice were divided into groups and administration commenced.
(§2) The asterisks in the figures indicate that P<0.05, based on the Dunnett's test. […] The open circles indicate the change in body weight in the group given the vehicle. […] The open squares indicate the change in body weight in the group given only Sorafenib in a dose of 80 mg/kg. […]

[1] = Example 2 body weight loss in HepG2 xenograft mouse model; assay type: in vivo; conditions: Sorafenib 80 mg/kg oral, relative to tumor-associated weight loss of the model
Protocol: as §1, §2

[2] = Example 5 body weight loss in HepG2 xenograft mouse model; assay type: in vivo; conditions: Sorafenib 80 mg/kg oral
Description: Sorafenib was synthesized according to Organic Process Research & Development (2002) 6, 777-781.
Th data is expressed by the time course of the body weight of the mice (mean±SD).

[3] = thermal denaturation midpoint temperature (Tm) by DSC, Reference Example 3; assay type: physicochemical; conditions: Fab domain peak, sodium acetate buffer pH 6.0 with 150 mmol/L NaCl, about 1 K/minute
Protocol: The thermal denaturation midpoint temperature (Tm) was determined by the top of the denaturation peak in the thermogram (Cp versus T) obtained after heating the test sample solution at a constant programmed heating rate. The Tm value of the humanized H0L0 antibody was measured using a sample solution for DSC measurement prepared as described in the following. The antibody solution (corresponding to 50 to 100 μg) filled in a dialysis membrane was first dialyzed for 24 hours against a dialysis external solution of 20 mol/L sodium acetate buffer solution (pH 6.0) containing 150 mmol/L sodium chloride. Subsequently, the sample solution was adjusted its antibody concentration of 50 to 100 μg/mL with dialysis external solution and used as the sample solution for DSC measurement.
A suitable DSC instrument, for example, DSC-II (Calorimetry Sciences Corporation), is used for this experiment. The sample solution prepared as described above and the reference solution (dialysis external solution) were thoroughly degassed, and each of these test specimens was placed in a calorimeter cell and was thermally equilibrated at 40° C. A DSC scan was then run from 40° C. to 100° C. at a scan rate of approximately 1 K/minute. The results of this measurement are given as the top of the denaturation peak as a function of temperature.

liver cancer cells = conditions: against liver cancer cells; see WO 2006/006693; cited from earlier work
[4] = target: T1, soluble GPC3 core polypeptide (Homo sapiens (Human), UniProt P51654 25-563); test: competitive ELISA, soluble GPC3 core polypeptide on plate, competitor biotinylated H0L0
T1 construct: It was immobilised on the ELISA plate at 1 ug/mL; also called glypican 3; antigen glypican 3
Protocol: 100 μL of the soluble GPC3 core polypeptide (SEQ ID NO: 36) at 1 μg/mL was added to each well of a 96-well plate. The soluble GPC3 core polypeptide was immobilized on the plate by allowing the plate to stand overnight at 4° C. The soluble GPC3 core polypeptide immobilized on the plate was washed 3 times with a washing buffer using a Skan WASHER400 (Molecular Devices); and blocked with 200 μL blocking buffer at 4° C. for at least 30 min. The blocked plate on which soluble GPC3 core polypeptide was immobilized was then washed 3 times with washing buffer using the Skan WASHER400. […] The plate was left stand for 1 hour at room temperature, then washed 5 times with washing buffer using the Skan WASHER400 (Molecular Devices). 100 μL goat anti-streptavidin alkaline phosphatase (ZYMED), diluted 20,000× with substrate buffer, was added to each well, and the resulting plate was left stand for 1 hour at room temperature, and then washed 5 times with washing buffer using the Skan WASHER400. Phosphatase Substrate (Sigma) was prepared at 1 mg/mL in the substrate buffer, added at 100 μL, per well for 1 hour. The absorbance at 405 nm of the reaction solution in each well was measured using a Benchmark Plus (BIO-RAD), with the control absorbance at 655 nm.

[5] = pI value by isoelectric electrophoresis, Reference Example 3; assay type: physicochemical
Protocol: The pI value of each antibody was calculated based on the analysis by isoelectric electrophoresis. Electrophoresis was carried out as described in the following. Using a Phast-System Cassette (Amersham Bioscience), Phast-Gel Dry IEF (Amersham Bioscience) gel was swollen for about 60 minutes with a swelling solution with the composition given below.
• 1.5 mL 10% glycerol • 100 μL Pharmalyte 8-10.5 for IEF (Amersham Bioscience)
• 1.5 mL purified water • 20 μL Pharmalyte 8-10.5 for IEF (Amersham Bioscience) • 80 μL Pharmalyte 5-8 for IEF (Amersham Bioscience)
Approximately 0.5 μg antibody was loaded on the swollen gel and isoelectric electrophoresis was run using the PhastSystem (Amersham Bioscience) controlled by the program described below. The sample was added to the gel at Step 2 of this program. A Calibration Kit for pI (Amersham Bioscience) was used for the pI markers.
After electrophoresis, the gel was fixed with 20% TCA and silver staining was then carried out using a Silver Staining Kit, Protein (Amersham Bioscience) according to the instructions provided with the kit. After staining, the isoelectric point of each antibody (test sample) was calculated based on the already known isoelectric points of the pI markers.

[6] = target: soluble GPC3 core polypeptide (Homo sapiens, UniProt P51654, S495A/S509A); test: competitive ELISA of binding activity against biotinylated humanized H0L0 antibody; conditions: for antigen binding activity compared with humanized H0L0 antibody: Reference Example 3
Protocol: The humanized H0L0 antibody and its point mutation-modified antibodies purified in (1) was evaluated by competitive ELISA. 100 μL of the soluble GPC3 core polypeptide (SEQ ID NO: 36) at 1 μg/mL was added to each well of a 96-well plate. The soluble GPC3 core polypeptide was immobilized on the plate by allowing the plate to stand overnight at 4° C. The soluble GPC3 core polypeptide immobilized on the plate was washed 3 times with a washing buffer using a Skan WASHER400 (Molecular Devices); and blocked with 200 μL blocking buffer at 4° C. for at least 30 min. The blocked plate on which soluble GPC3 core polypeptide was immobilized was then washed 3 times with washing buffer using the Skan WASHER400. Subsequently, each well of the plate received 200 μL of a mixture containing 100 μL of biotinylated humanized H0L0 antibody (final concentration=0.3 μg/mL) and 100 μL of the humanized H0L0 antibody or its point mutation-modified antibody (at various concentrations). The humanized H0L0 antibody was biotinylated using a Biotin Labeling Kit (Roche) according to the instructions provided with the kit. The plate was left stand for 1 hour at room temperature, then washed 5 times with washing buffer using the Skan WASHER400 (Molecular Devices). 100 μL goat anti-streptavidin alkaline phosphatase (ZYMED), diluted 20,000× with substrate buffer, was added to each well, and the resulting plate was left stand for 1 hour at room temperature, and then washed 5 times with washing buffer using the Skan WASHER400. Phosphatase Substrate (Sigma) was prepared at 1 mg/mL in the substrate buffer, added at 100 μL, per well for 1 hour. The absorbance at 405 nm of the reaction solution in each well was measured using a Benchmark Plus (BIO-RAD), with the control absorbance at 655 nm.
The binding activity to the antigen glypican 3 of each point mutation pI modified antibody was measured using the method described in Reference Example 3.

[7] = pI value by electrophoresis with PhastGel IEF 4-6.5, Reference Example 4; assay type: physicochemical; conditions: for pI value: PhastGel IEF 4-6.5
Protocol: The pI values of the Hd1.8Ld1.6 antibody and pH7pL16 antibody were measured by electrophoresis with PhastGel IEF 4-6.5 (GE Healthcase) using the method described in Reference Example 3 or similar method.

[8] = Tm of Fabs by VP-DSC, Reference Example 4; assay type: physicochemical; conditions: PBS, 20° C. to 115° C., about 4K/min
Protocol: The Tm values of Fabs obtained from Hd1.8Ld1.6 antibody and pH7pL16 antibody were measured with VP-DSC (Micro Cal) using the method similar to Reference Example 3. In this experiment, PBS was used as a dialysis solution, and the antibody concentration in the test solution for DSC measurement was adjusted to 25-100 μg/ml. DSC scanning was set from 20° C. to 115° C. at the scanning rate of about 4K/min, with the reference solution (dialysis solution) and DSC measurement test solution. The thermal denaturation midpoint temperature of the Fabs of the Hd1.8Ld1.6 antibody and pH7pL16 antibody was 77.5 and 74.7° C., respectively.

Chain of soluble GPC3 core polypeptide (Homo sapiens, UniProt P51654, S495A/S509A) (P51654 with tags, fused parts or gaps S495A/S509A): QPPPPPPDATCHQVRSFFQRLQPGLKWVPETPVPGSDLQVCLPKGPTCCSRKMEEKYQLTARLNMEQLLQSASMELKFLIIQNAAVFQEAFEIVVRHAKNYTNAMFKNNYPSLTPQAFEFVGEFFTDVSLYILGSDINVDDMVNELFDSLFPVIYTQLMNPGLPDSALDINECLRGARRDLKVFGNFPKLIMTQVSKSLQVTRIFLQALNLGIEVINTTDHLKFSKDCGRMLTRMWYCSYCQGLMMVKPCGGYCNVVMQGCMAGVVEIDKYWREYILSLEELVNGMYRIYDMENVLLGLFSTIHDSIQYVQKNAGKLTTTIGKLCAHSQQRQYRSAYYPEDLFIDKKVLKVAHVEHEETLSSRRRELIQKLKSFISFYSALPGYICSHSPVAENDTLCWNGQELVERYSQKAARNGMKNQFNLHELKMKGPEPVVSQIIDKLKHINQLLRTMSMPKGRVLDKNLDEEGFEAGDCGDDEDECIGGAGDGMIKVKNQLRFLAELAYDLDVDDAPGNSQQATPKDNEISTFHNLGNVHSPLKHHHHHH
T1 sequence (P51654 other isoform, or with tags, fused parts or gaps limits assumed): as the sequence (P51654 with tags, fused parts or gaps S495A/S509A) above

CS(=O)(=O)CCNCc1ccc(-c2ccc3ncnc(Nc4ccc(OCc5cccc(F)c5)c(Cl)c4)c3c2)o1 [lapatinib]
rate of response (liver cancer): 0% | time to progression (liver cancer): 1.8 months

CNC(=O)c1cc(Oc2ccc(NC(=O)Nc3ccc(Cl)c(C(F)(F)F)c3)cc2)ccn1 [Sorafenib, 4-[4-[[4-chloro-3-(trifluoromethyl)phenyl]carbamoylamino]phenoxy]-N-methylpyridine-2-carboxamide]
tumor growth, single agent (HuH-7 xenograft): suppressed | weight loss with Sorafenib alone [1]: further enhanced | weight loss with Sorafenib alone [2]: enhanced

Synagis: example of existing antibodies
Tm value (thermal denaturation midpoint temperature) [3]: 85.4 °C

B1: GC33: Mouse anti-human glypican 3 monoclonal antibody, clone GC33, WO 2006/006693; variable regions SEQ ID NOs: 1 and 2 (antibody, V domains shown)
VH: QVQLQQSGAELVRPGASVKLSCKASGYTFTDYEMHWVKQTPVHGLKWIGALDPKTGDTAYSQKFKGKATLTADKSSSTAYMELRSLTSEDSAVYYCTRFYSYTYWGQGTLVTVSA
VL: DVVMTQTPLSLPVSLGDQASISCRSSQSLVHSNGNTYLHWYLQKPGQSPKLLIYKVSNRFSGVPDRFSGSGSGTDFTLKISRVEAEDLGVYFCSQNTHVPPTFGSGTKLEIK
modifications: Modified antibody
ADCC and CDC activities (liver cancer cells): greater

B2: H15L4 antibody (antibody, V domains shown)
VH: QVQLVQSGAEVKKPGASVKVSCKASGYTFTDYEMHWIRQPPGQGLEWIGAIDPKTGDTAYSQKFKGRVTLTADKSTSTAYMELSSLTSEDTAVYYCTRFYSYTYWGQGTLVTVSS
VL: DIVMTQSPLSLPVTPGEPASISCRSSQSLVHSNRNTYLHWYQQKPGQAPRLLIYKVSNRFSGVPDRFSGSGSGTDFTLKISRVEAEDVGVYYCSQNTHVPPTFGQGTKLEIK
binding result [4]: binds

B3: Hd1.8Ld1.6: antibody composed of Hspd1.8 (SEQ ID NO: 27) and Lspd1.6 (SEQ ID NO: 29), lowered pI (antibody, V domains shown)
VH: QVQLVQSGAEVKKPGASVTVSCKASGYTFTDYEMHWIRQPPGEGLEWIGAIDPKTGDTAYSQSFQDRVTLTADKSTSTAYMELSSLTSEDTAVYYCTRFYSYTYWGQGTLVTVSS
VL: DIVMTQSPLSLPVTPGEPASISCRASESLVHSNRNTYLHWYQQKPGQAPRLLIYKVSNRFSGVPDRFSGSGSGTDFTLTISSLQAEDVGVYYCSQNTHVPPTFGQGTKLEIK
modifications: Modified antibody
reduction of pI relative to humanized H0L0 antibody [5]: 1.5 | pI value ([5]; isoelectric electrophoresis, Phast-Gel Dry IEF): 7.4 | antigen binding activity compared with humanized H0L0 antibody [6]: about the same | pI value [7]: 7.47 | thermal denaturation midpoint temperature of the Fabs [8]: 77.5 °C

B4: hGC33: humanized anti-glypican 3 antibody, H chain variable region SEQ ID NO: 3, L chain SEQ ID NO: 4 (antibody, V domains shown)
VH: QVQLVQSGAEVKKPGASVKVSCKASGYTFTDYEMHWVRQAPGQGLEWMGALDPKTGDTAYSQKFKGRVTLTADKSTSTAYMELSSLTSEDTAVYYCTRFYSYTYWGQGTLVTVSS
VL: DVVMTQSPLSLPVTPGEPASISCRSSQSLVHSNGNTYLHWYLQKPGQSPQLLIYKVSNRFSGVPDRFSGSGSGTDFTLKISRVEAEDVGVYYCSQNTHVPPTFGQGTKLEIK
modifications: Modified antibody
tumor growth, single agent (HuH-7 xenograft): suppressed

B5: H15L4: antibody combining heavy chain H15 (SEQ ID NO: 34) and light chain L4 (SEQ ID NO: 35) (antibody, V domains shown)
VH: QVQLVQSGAEVKKPGASVKVSCKASGYTFTDYEMHWIRQPPGQGLEWIGAIDPKTGDTAYSQKFKGRVTLTADKSTSTAYMELSSLTSEDTAVYYCTRFYSYTYWGQGTLVTVSS
VL: DIVMTQSPLSLPVTPGEPASISCRSSQSLVHSNRNTYLHWYQQKPGQAPRLLIYKVSNRFSGVPDRFSGSGSGTDFTLKISRVEAEDVGVYYCSQNTHVPPTFGQGTKLEIK
modifications: Modified antibody
antigen binding activity compared with humanized H0L0 antibody [6]: about the same

B6: pH7pL16: pI modified humanized anti-glypican 3 antibody, pH7 (SEQ ID NO:31) and pL16 (SEQ ID NO:33) (antibody, V domains shown)
VH: QVQLVQSGAEVKKPGASVTVSCKASGYTFTDYEMHWIRQPPGEGLEWIGAIDPKTGDTAYSESFQDRVTLTADKSTSTAYMELSSLTSEDTAVYYCTRFYSYTYWGQGTLVTVSS
VL: DIVMTQSPLSLPVTPGEPASISCQASESLVHSNRNTYLHWYLQKPGQSPQLLIYKVSNRFSGVPDRFSGSGSGTDFTLKISRVEAEDVGVYYCSQNTHVPPTFGQGTKVEIE
modifications: Modified antibody
binding activity to glypican 3 compared with humanized H0L0 antibody ([6]; Reference Example 4): comparative | pI lower than that of Hd1.8Ld1.6 antibody by [7]: 0.95 | pI value [7]: 6.52 | thermal denaturation midpoint temperature of the Fabs [8]: 74.7 °C

B7: Hspd1.8Lspd1.6 (Hd1.8Ld1.6) antibody (antibody, V domains shown)
VH: QVQLVQSGAEVKKPGASVTVSCKASGYTFTDYEMHWIRQPPGEGLEWIGAIDPKTGDTAYSQSFQDRVTLTADKSTSTAYMELSSLTSEDTAVYYCTRFYSYTYWGQGTLVTVSS
VL: DIVMTQSPLSLPVTPGEPASISCRASESLVHSNRNTYLHWYQQKPGQAPRLLIYKVSNRFSGVPDRFSGSGSGTDFTLTISSLQAEDVGVYYCSQNTHVPPTFGQGTKLEIK
binding result [4]: binds
